Measured values from article PMC3115021, “Dynamics of Cdk1 Substrate Specificity during the Cell Cycle” (Molecular Cell, 2011).

Assays:
Assay in all cases: Quantitative phosphorylation assay of T33-Sic1ΔC constructs and recombinant substrates
Type in all cases: biochemical
Settings in all cases: Table S2; purified protein substrate; relative values, not divided by [S]
Clb2hpm-Cdk1 = molecular target: T1, Clb2hpm-Cdk1 (Saccharomyces cerevisiae, UniProt P00546)
T1 construct: made in house; host or cells: S. cerevisiae strain DOM0964 (gal-CLB2hpm-TAP, sic1 deleted); Cks1 from bacteria
T1 sequence (P00546 2-298 limits assumed): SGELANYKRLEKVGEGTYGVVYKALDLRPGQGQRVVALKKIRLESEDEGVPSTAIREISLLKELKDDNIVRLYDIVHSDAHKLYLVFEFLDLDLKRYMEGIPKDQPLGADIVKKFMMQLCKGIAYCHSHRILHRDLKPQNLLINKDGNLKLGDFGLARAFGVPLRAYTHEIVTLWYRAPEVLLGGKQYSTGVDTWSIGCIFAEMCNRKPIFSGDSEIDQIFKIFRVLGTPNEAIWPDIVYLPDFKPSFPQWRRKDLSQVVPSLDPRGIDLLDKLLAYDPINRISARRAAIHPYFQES
How it was run: (§1)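 Yeast cyclin-Cdk1 complexes (1–10 nM, TAP-purified) phosphorylated 6His-T33-Sic1ΔC (other S/T-P sites mutated to Ala-Ala) or recombinant substrates at 0.5–2 μM, below KM, with 32P-γ-ATP. Initial velocities (≤10% turnover) from two or more time points, SDS-PAGE stopped; relative kcat/KM from v0 ratios.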

Clb5hpm-Cdk1 = molecular target: T2, Clb5hpm-Cdk1 (Saccharomyces cerevisiae, UniProt P00546)
T2 construct: made in house; host or cells: S. cerevisiae strain DOM0963 (gal-CLB5hpm-TAP, sic1 deleted); Cks1 from bacteria
T2 sequence (P00546 2-298 limits assumed): as above
How it was run: as §1

Clb3hpm-Cdk1 = molecular target: T3, Clb3hpm-Cdk1 (Saccharomyces cerevisiae, UniProt P00546+P24870)
T3 construct: made in house; host or cells: S. cerevisiae strain MK0168 (gal-CLB3hpm-TAP, sic1 deleted); Cks1 from bacteria
How it was run: as §1

Clb3-Cdk1 = molecular target: T4, Clb3-Cdk1 (Saccharomyces cerevisiae, UniProt P00546+P24870)
T4 construct: We purified the four cyclin-Cdk1 complexes from yeast; made in house; host or cells: S. cerevisiae strain DOM0957 (gal-CLB3-TAP, sic1 deleted); Cks1 from bacteria
T4 sequence (P00546 2-298 limits assumed): as above
T4 sequence (P24870 whole entry partner): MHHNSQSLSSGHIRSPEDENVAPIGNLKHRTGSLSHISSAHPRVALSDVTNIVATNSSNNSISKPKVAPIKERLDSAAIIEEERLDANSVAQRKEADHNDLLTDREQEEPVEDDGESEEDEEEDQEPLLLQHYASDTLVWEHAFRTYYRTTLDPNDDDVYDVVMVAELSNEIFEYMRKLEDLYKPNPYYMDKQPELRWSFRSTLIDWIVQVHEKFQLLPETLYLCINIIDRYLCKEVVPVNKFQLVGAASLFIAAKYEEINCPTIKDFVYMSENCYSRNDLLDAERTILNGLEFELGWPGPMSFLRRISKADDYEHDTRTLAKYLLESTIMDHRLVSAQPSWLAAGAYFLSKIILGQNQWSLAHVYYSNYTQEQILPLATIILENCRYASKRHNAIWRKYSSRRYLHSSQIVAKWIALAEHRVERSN
T4 sequence (P20486 whole entry partner): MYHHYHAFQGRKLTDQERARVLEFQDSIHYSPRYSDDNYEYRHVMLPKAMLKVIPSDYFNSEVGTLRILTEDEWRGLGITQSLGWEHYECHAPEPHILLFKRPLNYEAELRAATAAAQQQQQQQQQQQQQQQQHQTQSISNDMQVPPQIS

Clb5-Cdk1 = molecular target: T5, Clb5-Cdk1 (Saccharomyces cerevisiae, UniProt P00546+P30283)
T5 construct: We purified the four cyclin-Cdk1 complexes from yeast; made in house; host or cells: S. cerevisiae strain DOM0076 (gal-CLB5-TAP, sic1 deleted); Cks1 from bacteria
T5 sequence (P00546 2-298 limits assumed): as the sequence (P00546 2-298 limits assumed) above
T5 sequence (P30283 whole entry partner): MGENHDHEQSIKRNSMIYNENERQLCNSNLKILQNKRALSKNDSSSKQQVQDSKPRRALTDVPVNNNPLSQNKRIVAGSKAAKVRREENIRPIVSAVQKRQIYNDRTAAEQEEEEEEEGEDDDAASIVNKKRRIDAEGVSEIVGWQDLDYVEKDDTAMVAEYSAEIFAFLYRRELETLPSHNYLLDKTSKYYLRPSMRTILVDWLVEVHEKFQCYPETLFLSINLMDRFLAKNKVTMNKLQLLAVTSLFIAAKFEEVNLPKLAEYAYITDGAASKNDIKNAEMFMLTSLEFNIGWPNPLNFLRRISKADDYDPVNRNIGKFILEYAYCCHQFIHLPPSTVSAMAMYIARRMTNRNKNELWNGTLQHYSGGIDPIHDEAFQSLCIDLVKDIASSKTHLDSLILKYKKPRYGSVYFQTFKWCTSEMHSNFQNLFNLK
T5 sequence (P20486 whole entry partner): as the sequence (P20486 whole entry partner) above

Clb2-Cdk1 = molecular target: T6, Clb2-Cdk1 (Saccharomyces cerevisiae, UniProt P00546+P24869)
T6 construct: We purified the four cyclin-Cdk1 complexes from yeast; made in house; host or cells: S. cerevisiae strain DOM0077 (gal-CLB2-TAP, sic1 deleted); Cks1 from bacteria
T6 sequence (P00546 2-298 limits assumed): as the sequence (P00546 2-298 limits assumed) above
T6 sequence (P24869 2-491 partner limits assumed): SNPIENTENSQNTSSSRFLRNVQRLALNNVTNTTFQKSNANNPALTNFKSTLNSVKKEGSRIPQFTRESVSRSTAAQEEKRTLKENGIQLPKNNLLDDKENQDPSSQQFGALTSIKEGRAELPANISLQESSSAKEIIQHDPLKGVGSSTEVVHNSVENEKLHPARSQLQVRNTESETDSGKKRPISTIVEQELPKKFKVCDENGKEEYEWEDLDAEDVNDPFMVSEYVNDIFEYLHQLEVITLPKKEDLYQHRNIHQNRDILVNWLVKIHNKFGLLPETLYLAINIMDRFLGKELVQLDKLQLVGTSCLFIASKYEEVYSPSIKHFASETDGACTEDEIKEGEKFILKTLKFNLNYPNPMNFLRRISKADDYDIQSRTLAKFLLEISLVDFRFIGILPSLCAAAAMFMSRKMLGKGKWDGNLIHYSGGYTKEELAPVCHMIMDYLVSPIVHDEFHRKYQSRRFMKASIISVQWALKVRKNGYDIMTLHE
T6 sequence (P20486 whole entry partner): as the sequence (P20486 whole entry partner) above

Cln2-Cdk1 = molecular target: T7, Cln2-Cdk1 (Saccharomyces cerevisiae, UniProt P00546+P20438)
T7 construct: We purified the four cyclin-Cdk1 complexes from yeast; made in house; host or cells: S. cerevisiae strain DMY305 (galactose-induced); Cks1 from bacteria
T7 sequence (P00546 2-298 limits assumed): as the sequence (P00546 2-298 limits assumed) above
T7 sequence (P20438 whole entry partner): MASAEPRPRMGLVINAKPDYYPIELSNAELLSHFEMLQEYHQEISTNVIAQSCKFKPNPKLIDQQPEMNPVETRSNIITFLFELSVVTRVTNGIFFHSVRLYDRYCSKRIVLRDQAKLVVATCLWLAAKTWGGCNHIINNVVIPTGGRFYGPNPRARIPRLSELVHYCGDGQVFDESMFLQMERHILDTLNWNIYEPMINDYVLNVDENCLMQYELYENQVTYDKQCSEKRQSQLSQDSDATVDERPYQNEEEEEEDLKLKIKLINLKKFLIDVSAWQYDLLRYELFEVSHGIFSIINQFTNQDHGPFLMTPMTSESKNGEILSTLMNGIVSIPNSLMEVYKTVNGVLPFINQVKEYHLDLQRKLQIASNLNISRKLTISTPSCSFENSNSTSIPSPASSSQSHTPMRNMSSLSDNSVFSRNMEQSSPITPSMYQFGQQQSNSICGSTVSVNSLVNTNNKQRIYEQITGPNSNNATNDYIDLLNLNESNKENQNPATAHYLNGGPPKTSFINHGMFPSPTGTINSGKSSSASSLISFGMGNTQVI
T7 sequence (P20486 whole entry partner): as the sequence (P20486 whole entry partner) above

Row | Molecule | kcat/KM, Clb2hpm (Clb2hpm-Cdk1) [relative units] | kcat/KM, Clb5hpm (Clb5hpm-Cdk1) [relative units] | kcat/KM, Clb3hpm (Clb3hpm-Cdk1) [relative units] | kcat/KM, Clb3 (Clb3-Cdk1) [relative units] | kcat/KM, Clb5 (Clb5-Cdk1) [relative units] | kcat/KM, Clb2 (Clb2-Cdk1) [relative units] | kcat/KM, Cln2 (Cln2-Cdk1) [relative units]
1 | FIN1: spindle-stabilizing protein, tested as Cdk1 substrate (protein, UniProt Q03898 1-291, looked up) Filament protein FIN1: MSNKSNRRSLRDIGNTIGRNNIPSDKDNVFVRLSMSPLRTTSQKEFLKPPMRISPNKTDGMKHSIQVTPRRIMSPECLKGYVSKETQSLDRPQFKNSNKNVKIQNSDHITNIIFPTSPTKLTFSNENKIGGDGSLTRIRARFKNGLMSPERIQQQQQQHILPSDAKSNTDLCSNTELKDAPFENDLPRAKLKGKNLLVELKKEEEDVGNGIESLTKSNTKLNSMLANEGKIHKASFQKSVKFKLPDNIVTEETVELKEIKDLLLQMLRRQREIESRLSNIELQLTEIPKHK | 14.08 | 3.651 | 7.488 | 10.96 | 23.02 | 12.43 | 1.800
2 | CDC6: replication factor and pre-RC component, tested as Cdk1 substrate (protein, UniProt P09119 1-513, looked up) Cell division control protein …: MSAIPITPTKRIRRNLFDDAPATPPRPLKRKKLQFTDVTPESSPEKLQFGSQSIFLRTKALLQKSSELVNLNSSDGALPARTAEYEQVMNFLAKAISEHRSDSLYITGPPGTGKTAQLDMIIRQKFQSLPLSLSTPRSKDVLRHTNPNLQNLSWFELPDGRLESVAVTSINCISLGEPSSIFQKIFDSFQDLNGPTLQIKNMQHLQKFLEPYHKKTTFVVVLDEMDRLLHANTSETQSVRTILELFLLAKLPTVSFVLIGMANSLDMKDRFLSRLNLDRGLLPQTIVFQPYTAEQMYEIVIQKMSSLPTIIFQPMAIKFAAKKCAGNTGDLRKLFDVLRGSIEIYELEKRFLLSPTRGSLNSAQVPLTPTTSPVKKSYPEPQGKIGLNYIAKVFSKFVNNNSTRTRIAKLNIQQKLILCTIIQSLKLNSDATIDESFDHYIKAITKTDTLAPLQRNEFLEICTILETCGLVSIKKTKCKGKTKRFVDKIDVDLDMREFYDEMTKISILKPFLH | 1.688 | 0.138 | 0.350 | 2.268 | 2.898 | 0.078 | 0.084
3 | CDH1: protein purified using the baculovirus system, tested as Cdk1 substrate (protein, UniProt P53197 1-566, looked up) APC/C activator protein CDH1: MSTNLNPFMNNTPSSSPLKGSESKRVSKRPISSSSSASLLSSPSRRSRPSTVYGDRYIPSRTDIDFNSIVSISSMASVPALNPSSTEDQVEYQKERQAHETYNTLLKNELFGEMLSKDTVGSESSIDRIKNTRPSTRGNVHAENTTRHGYELERVSTPPPEAAGLEEFSPHSTPVTPRRLFTSQQDEITRPSSNSVRGASLLTYQQRKGRRLSAASLLQSQFFDSMSPVRPDSKQLLLSPGKQFRQIAKVPYRVLDAPSLADDFYYSLIDWSSTDVLAVALGKSIFLTDNNTGDVVHLCDTENEYTSLSWIGAGSHLAVGQANGLVEIYDVMKRKCIRTLSGHIDRVACLSWNNHVLTSGSRDHRILHRDVRMPDPFFETIESHTQEVCGLKWNVADNKLASGGNDNVVHVYEGTSKSPILTFDEHKAAVKAMAWSPHKRGVLATGGGTADRRLKIWNVNTSIKMSDIDSGSQICNMVWSKNTNELVTSHGYSKYNLTLWDCNSMDPIAILKGHSFRVLHLTLSNDGTTVVSGAGDETLRYWKLFDKPKAKVQPNSLIFDAFNQIR | 0.023 | 0.006 | 0.008 | 0.024 | 0.025 | 0.035 | 0.016
4 | EXO84: purified yeast protein tested as Cdk1 substrate (protein, UniProt P38261 1-753, looked up) Exocyst complex component …: MVEFSLKKARNNWKHVKKSASSPAKQKTPPSPAKPKQKTKKNPYSDLKDPATSYTLPTINARERSRVATSMQRRLSIHNTNYAPPTLDYSMPLPDMPNMIVPNDNVDSSHNNSSFTTENESVSSKGPSNSLNLSTADLSLNDSSYNKVPARSAMRNTVNPSGSNDPFNNSTSLRKMLANPHFNAKDFVHDKLGNASAITIDKFTSNLTDLSIQVQEEVKLNINKSYNEIMTVNNDLNVAMLELKRVRANINDLNEVLDQCTKIAEKRLQLQDQIDQERQGNFNNVESHSNSPALLPPLKAGQNGNLMRRDRSSVLILEKFWDTELDQLFKNVEGAQKFINSTKGRHILMNSANWMELNTTTGKPLQMVQIFILNDLVLIADKSRDKQNDFIVSQCYPLKDVTVTQEEFSTKRLLFKFSNSNSSLYECRDADECSRLLDVIRKAKDDLCDIFHVEEENSKRIRESFRYLQSTQQTPGRENNRSPNKNKRRSMGGSITPGRNVTGAMDQYLLQNLTLSMHSRPRSRDMSSTAQRLKFLDEGVEEIDIELARLRFESAVETLLDIESQLEDLSERISDEELMLLNLISLKIEQRREAISSKLSQSILSSNEIVHLKSGTENMIKLGLPEQALDLFLQNRSNFIQDLILQIGSVDNPTNYLTQLAVIRFQTIKKTVEDFQDIFKELGAKISSILVDWCSDEVDNHFKLIDKQLLNDEMLSPGSIKSSRKQIDGLKAVGLDFVYKLDEFIKKNSDKIR | 0.062 | 0.006 | 0.014 | 0.031 | 0.019 | 0.074 | 0.084
5 | FAR1: Cdk1 inhibitor Far1, tested as Cdk1 substrate (protein, UniProt P21268 1-830, looked up) Cyclin-dependent kinase …: MKTPTRVSFEKKIHTPPSGDRDAERSPPKKFLRGLSGKVFRKTPEFKKQQMPTFGYIEESQFTPNLGLMMSKRGNIPKPLNLSKPISPPPSLKKTAGSVASGFSKTGQLSALQSPVNITSSNKYNIKATNLTTSLLRESISDSTTMCDTLSDINLTVMDEDYRIDGDSYYEEDSPTFMISLERNIKKCNSQFSPKRYIGEKCLICEESISSTFTGEKVVESTCSHTSHYNCYLMLFETLYFQGKFPECKICGEVSKPKDKDIVPEMVSKLLTGAGAHDDGPSSNMQQQWIDLKTARSFTGEFPQFTPQEQLIRTADISCDGFRTPRLSNSNQFEAVSYLDSPFLNSPFVNKMATTDPFDLSDDEKLDCDDEIDESAAEVWFSKTGGEHVMVSVKFQEMRTSDDLGVLQDVNHVDHEELEEREKEWKKKIDQYIETNVDKDSEFGSLILFDKLMYSDDGEQWVDNNLVILFSKFLVLFDFEEMKILGKIPRDQFYQVIKFNEDVLLCSLKSTNIPEIYLRFNENCEKWLLPKWKYCLENSSLETLPLSEIVSTVKELSHVNIIGALGAPPDVISAQSHDSRLPWKRLHSDTPLKLIVCLNLSHADGELYRKRVLKSVHQILDGLNTDDLLGIVVVGRDGSGVVGPFGTFIGMINKNWDGWTTFLDNLEVVNPNVFRDEKQQYKVTLQTCERLASTSAYVDTDDHIATGYAKQILVLNGSDVVDIEHDQKLKKAFDQLSYHWRYEISQRRMTPLNASIKQFLEELHTKRYLDVTLRLPQATFEQVYLGDMAAGEQKTRLIMDEHPHSSLIEIEYFDLVKQQRIHQTLEVPNL | 0.033 | 0.003 | 0.008 | 0.031 | 0.115 | 0.029 | 0.042
